In patent EP4335450A1 (Cellemedy Co., Ltd, dated 2024):

Target: T1, human transferrin receptor-Fc tag standard (human, UniProt P02786 89-760, limits assumed)
T1 construct: Coated on the ELISA plate at 2 µg/ml; also called hTfR; not shown: Fc tag
Test: ELISA, hTfR-Fc coated on plate; calculated from an expected saturation point, curve not saturated at 10000 nM

T1 sequence (P02786 89-760 limits assumed): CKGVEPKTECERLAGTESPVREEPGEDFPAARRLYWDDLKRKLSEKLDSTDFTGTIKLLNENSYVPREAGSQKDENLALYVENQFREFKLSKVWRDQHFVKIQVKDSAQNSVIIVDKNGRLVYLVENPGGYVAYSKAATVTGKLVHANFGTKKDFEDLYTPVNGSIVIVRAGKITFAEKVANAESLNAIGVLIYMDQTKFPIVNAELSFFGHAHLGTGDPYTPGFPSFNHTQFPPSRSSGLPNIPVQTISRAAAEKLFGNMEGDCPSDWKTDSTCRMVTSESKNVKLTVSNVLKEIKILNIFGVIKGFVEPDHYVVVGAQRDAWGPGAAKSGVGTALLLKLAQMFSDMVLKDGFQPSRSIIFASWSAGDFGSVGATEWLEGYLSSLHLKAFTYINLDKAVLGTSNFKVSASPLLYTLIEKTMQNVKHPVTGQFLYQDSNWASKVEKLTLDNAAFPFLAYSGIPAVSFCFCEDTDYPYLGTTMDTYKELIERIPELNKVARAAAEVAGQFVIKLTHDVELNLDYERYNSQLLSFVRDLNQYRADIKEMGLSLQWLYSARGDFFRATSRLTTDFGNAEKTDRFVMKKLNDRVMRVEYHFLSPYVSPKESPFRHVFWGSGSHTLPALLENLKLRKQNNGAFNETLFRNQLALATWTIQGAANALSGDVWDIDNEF

- Kd: ~4.4 µM
B1: huHF_Mutant2-dual (other)
chain: MTTASTSQVRQNYHAASEAAINAQINLELYASYVYLSMSYYFDRDDVALKNFAKYFLHQSHEEREHAEKLMKLQNQRGGRIALADIQKPDCDDGGSYGSLYAFDIWESGLNAMECALHLEKNVNQSLLALHALATAKNDPHLCDFIETHYLNEQVKAIKELGDHVTNLRKMGAPESGLAEYLFDKHTLGDSDNESMPSFITLASLSTWEGYFDF
notes: Ferritin particle of 24 monomers
